# T1: FcγRIIa R (extracellular domain with a His tag at the C terminus) (human, UniProt P12318 34-217)
# T1 construct: extracellular domain; expressed in FreeStyle293 cells; also called FcgRIIa R; FcγRIIa type R; not shown: His tag at the C terminus
# T1 sequence (looked up): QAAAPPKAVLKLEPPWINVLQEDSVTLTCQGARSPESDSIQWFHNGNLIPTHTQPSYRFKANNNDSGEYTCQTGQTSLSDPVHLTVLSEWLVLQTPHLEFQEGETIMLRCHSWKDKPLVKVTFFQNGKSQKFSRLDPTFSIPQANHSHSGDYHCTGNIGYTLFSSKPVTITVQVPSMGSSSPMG
# B1: GpH7-B3 variant S324_06M/GpL16-k0 (antibody, human IgG1, kappa)
# heavy: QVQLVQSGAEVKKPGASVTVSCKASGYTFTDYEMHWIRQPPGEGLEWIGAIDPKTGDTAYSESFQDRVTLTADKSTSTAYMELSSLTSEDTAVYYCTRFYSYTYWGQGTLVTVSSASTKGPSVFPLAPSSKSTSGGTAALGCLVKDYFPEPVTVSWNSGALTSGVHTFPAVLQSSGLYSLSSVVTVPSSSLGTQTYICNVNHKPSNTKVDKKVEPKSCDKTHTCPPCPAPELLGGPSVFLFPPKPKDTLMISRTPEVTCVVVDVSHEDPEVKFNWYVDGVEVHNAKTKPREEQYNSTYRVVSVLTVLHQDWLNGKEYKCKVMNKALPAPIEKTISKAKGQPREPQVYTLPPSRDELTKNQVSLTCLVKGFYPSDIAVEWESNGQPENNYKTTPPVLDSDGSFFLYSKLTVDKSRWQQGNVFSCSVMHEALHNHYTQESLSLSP
# light: DIVMTQSPLSLPVTPGEPASISCQASESLVHSNRNTYLHWYLQKPGQSPQLLIYKVSNRFSGVPDRFSGSGSGTDFTLKISRVEAEDVGVYYCSQNTHVPPTFGQGTKVEIERTVAAPSVFIFPPSDEQLKSGTASVVCLLNNFYPREAKVQWKVDNALQSGNSQESVTEQDSKDSTYSLSSTLTLSKADYEKHKVYACEVTHQGLSSPVTKSFNRGEC
# notes: homodimerized; mutation in both H chains; also called Ho Ab
# B2: GpH7-A5/GpH7-B3 variant S337_02A/GpL16-k0 (antibody, human IgG1, kappa)
# heavy 1: not shown
# heavy 2: not shown
# light: B1 light
# notes: heterodimerized; mutation in one H chain; also called He Ab
# B3: GpH7-B3 variant T335_07I/GpL16-k0 (antibody, human IgG1, kappa)
# heavy: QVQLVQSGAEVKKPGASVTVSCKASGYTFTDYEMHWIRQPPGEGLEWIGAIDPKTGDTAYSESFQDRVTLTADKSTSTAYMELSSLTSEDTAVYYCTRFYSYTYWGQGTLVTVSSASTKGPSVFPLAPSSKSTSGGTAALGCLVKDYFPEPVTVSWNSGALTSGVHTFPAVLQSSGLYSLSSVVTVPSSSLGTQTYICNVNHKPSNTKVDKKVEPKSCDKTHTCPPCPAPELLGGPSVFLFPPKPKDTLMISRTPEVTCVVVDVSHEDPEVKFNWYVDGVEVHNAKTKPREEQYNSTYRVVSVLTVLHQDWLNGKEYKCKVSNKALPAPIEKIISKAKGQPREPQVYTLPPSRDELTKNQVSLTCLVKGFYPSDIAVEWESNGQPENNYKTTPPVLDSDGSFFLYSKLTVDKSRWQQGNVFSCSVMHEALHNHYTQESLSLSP
# light: B1 light
# notes: as for B1
# B4: GpH7-B3 variant S337_20W/GpL16-k0 (antibody, human IgG1, kappa)
# heavy: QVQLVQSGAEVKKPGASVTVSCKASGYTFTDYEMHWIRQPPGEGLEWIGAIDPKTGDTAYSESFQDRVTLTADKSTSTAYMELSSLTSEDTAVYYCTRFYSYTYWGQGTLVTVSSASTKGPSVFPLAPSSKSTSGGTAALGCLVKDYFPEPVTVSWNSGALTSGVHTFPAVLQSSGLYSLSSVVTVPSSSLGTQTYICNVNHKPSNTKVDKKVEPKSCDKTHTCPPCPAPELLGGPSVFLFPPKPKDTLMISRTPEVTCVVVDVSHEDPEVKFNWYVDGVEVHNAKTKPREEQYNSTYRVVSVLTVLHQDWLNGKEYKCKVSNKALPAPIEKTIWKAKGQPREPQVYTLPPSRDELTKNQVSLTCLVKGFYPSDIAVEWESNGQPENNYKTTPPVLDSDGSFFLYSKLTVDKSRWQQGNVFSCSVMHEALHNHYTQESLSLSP
# light: B1 light
# notes: as for B1
# B5: GpH7-B3 variant S337_07I/GpL16-k0 (antibody, human IgG1, kappa)
# heavy: not shown
# light: B1 light
# notes: as for B1
# B6: GpH7-A5/GpH7-B3 variant A327_10E/GpL16-k0 (antibody, human IgG1, kappa)
# heavy 1: not shown
# heavy 2: not shown
# light: B1 light
# notes: as for B2
# B7: GpH7-A5/GpH7-B3 variant A330_01G/GpL16-k0 (antibody, human IgG1, kappa)
# heavy 1: not shown
# heavy 2: not shown
# light: B1 light
# notes: as for B2
# B8: GpH7-B3 variant T335_02A/GpL16-k0 (antibody, human IgG1, kappa)
# heavy: not shown
# light: B1 light
# notes: as for B1
# B9: GpH7-B3 variant S337_18N/GpL16-k0 (antibody, human IgG1, kappa)
# heavy: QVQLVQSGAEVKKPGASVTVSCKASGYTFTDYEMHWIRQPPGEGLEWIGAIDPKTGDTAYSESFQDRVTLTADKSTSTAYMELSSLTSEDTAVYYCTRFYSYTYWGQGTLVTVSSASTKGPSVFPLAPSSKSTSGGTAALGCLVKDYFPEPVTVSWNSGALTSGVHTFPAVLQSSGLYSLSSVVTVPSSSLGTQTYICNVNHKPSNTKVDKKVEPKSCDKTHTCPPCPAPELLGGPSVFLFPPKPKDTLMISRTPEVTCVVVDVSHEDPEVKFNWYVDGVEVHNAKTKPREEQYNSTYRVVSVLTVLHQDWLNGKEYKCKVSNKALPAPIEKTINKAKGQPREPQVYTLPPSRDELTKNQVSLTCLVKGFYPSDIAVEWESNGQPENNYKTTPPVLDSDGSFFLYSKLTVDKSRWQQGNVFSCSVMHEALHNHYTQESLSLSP
# light: B1 light
# notes: as for B1
# B10: GpH7-A5/GpH7-B3 variant A327_09D/GpL16-k0 (antibody, human IgG1, kappa)
# heavy 1: not shown
# heavy 2: not shown
# light: B1 light
# notes: as for B2
# B11: GpH7-B3 variant S337_16H/GpL16-k0 (antibody, human IgG1, kappa)
# heavy: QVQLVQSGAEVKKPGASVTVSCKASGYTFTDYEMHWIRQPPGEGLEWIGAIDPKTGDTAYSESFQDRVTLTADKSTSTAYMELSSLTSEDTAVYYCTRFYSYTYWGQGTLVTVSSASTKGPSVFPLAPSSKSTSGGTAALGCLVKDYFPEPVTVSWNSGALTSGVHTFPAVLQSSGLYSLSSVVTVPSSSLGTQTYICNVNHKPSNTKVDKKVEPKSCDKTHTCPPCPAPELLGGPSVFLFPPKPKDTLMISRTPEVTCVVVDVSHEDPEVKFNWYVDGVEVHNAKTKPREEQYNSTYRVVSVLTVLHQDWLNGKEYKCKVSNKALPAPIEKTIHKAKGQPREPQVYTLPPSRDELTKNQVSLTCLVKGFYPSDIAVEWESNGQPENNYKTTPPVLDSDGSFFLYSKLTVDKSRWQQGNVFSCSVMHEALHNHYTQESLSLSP
# light: B1 light
# notes: as for B1
# B12: GpH7-B3 variant S337_03V/GpL16-k0 (antibody, human IgG1, kappa)
# heavy: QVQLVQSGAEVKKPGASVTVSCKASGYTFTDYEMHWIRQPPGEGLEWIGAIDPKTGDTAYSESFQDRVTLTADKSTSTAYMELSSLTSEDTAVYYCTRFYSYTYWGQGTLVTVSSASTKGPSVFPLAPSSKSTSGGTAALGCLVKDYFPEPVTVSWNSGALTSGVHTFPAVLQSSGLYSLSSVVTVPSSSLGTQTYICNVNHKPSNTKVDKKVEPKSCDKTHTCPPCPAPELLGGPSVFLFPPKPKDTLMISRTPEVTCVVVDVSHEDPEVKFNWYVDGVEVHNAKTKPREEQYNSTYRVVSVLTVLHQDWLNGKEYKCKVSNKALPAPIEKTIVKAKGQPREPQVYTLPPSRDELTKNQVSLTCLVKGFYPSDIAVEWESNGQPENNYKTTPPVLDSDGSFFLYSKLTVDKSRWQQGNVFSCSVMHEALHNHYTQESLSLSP
# light: B1 light
# notes: as for B1
# B13: GpH7-B3 variant T335_13S/GpL16-k0 (antibody, human IgG1, kappa)
# heavy: not shown
# light: B1 light
# notes: as for B1
# B14: GpH7-B3 variant S337_10E/GpL16-k0 (antibody, human IgG1, kappa)
# heavy: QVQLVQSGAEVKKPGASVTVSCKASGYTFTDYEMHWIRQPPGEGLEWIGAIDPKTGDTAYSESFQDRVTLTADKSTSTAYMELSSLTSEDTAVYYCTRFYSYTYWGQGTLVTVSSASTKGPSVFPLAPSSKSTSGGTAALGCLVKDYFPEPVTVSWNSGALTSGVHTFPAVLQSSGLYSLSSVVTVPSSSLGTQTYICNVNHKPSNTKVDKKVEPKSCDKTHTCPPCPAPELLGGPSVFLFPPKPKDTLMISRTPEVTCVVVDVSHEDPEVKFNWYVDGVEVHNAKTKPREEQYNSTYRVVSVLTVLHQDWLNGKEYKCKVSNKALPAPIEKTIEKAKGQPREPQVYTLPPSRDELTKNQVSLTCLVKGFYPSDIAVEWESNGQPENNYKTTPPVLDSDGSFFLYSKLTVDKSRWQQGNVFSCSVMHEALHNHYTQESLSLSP
# light: B1 light
# notes: as for B1
# B15: GpH7-A5/GpH7-B3 variant A330_12R/GpL16-k0 (antibody, human IgG1, kappa)
# heavy 1: not shown
# heavy 2: not shown
# light: B1 light
# notes: as for B2
# B16: GpH7-B3 variant S337_09D/GpL16-k0 (antibody, human IgG1, kappa)
# heavy: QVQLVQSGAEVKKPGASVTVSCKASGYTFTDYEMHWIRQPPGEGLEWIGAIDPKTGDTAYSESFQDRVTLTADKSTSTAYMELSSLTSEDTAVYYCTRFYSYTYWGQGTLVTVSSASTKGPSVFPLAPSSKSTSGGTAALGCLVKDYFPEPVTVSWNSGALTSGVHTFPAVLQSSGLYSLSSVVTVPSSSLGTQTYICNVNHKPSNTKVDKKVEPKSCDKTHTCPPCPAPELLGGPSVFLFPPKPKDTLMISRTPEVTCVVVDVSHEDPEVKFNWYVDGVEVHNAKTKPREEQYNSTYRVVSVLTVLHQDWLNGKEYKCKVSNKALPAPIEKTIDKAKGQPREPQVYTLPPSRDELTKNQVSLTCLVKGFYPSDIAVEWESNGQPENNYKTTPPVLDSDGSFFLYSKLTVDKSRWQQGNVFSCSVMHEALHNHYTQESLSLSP
# light: B1 light
# notes: as for B1
# B17: GpH7-B3 variant S337_06M/GpL16-k0 (antibody, human IgG1, kappa)
# heavy: not shown
# light: B1 light
# notes: as for B1
# B18: GpH7-A5/GpH7-B3 variant G237_04F/GpL16-k0 (antibody, human IgG1, kappa)
# heavy 1: not shown
# heavy 2: not shown
# light: B1 light
# notes: as for B2
# B19: GpH7-B3 variant T335_10E/GpL16-k0 (antibody, human IgG1, kappa)
# heavy: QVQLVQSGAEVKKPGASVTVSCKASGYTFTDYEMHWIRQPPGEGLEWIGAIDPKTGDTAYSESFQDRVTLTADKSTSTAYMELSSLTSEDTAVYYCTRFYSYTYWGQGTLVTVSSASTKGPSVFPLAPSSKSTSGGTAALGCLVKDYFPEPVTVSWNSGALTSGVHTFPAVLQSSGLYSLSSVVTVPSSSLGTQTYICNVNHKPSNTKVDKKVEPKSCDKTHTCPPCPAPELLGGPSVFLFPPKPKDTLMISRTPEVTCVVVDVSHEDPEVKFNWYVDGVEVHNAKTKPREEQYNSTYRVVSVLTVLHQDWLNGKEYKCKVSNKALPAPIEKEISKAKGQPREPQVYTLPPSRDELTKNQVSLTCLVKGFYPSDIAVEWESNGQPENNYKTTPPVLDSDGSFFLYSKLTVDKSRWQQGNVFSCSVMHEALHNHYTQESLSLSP
# light: B1 light
# notes: as for B1
# B20: GpH7-B3 variant T335_05P/GpL16-k0 (antibody, human IgG1, kappa)
# heavy: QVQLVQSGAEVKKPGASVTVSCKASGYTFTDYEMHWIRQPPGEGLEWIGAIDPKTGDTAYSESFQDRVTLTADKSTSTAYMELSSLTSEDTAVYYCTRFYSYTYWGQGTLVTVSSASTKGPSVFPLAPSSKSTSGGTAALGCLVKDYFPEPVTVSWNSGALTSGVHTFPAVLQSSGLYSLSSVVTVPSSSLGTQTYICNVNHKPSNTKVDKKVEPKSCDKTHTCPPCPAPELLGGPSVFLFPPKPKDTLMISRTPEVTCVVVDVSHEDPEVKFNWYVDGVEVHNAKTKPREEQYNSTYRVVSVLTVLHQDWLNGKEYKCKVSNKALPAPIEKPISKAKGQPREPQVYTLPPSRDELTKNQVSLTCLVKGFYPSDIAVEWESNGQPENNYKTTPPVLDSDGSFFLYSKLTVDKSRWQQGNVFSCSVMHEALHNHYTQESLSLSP
# light: B1 light
# notes: as for B1
# B21: GpH7-A5/GpH7-B3 variant G237_20W/GpL16-k0 (antibody, human IgG1, kappa)
# heavy 1: not shown
# heavy 2: not shown
# light: B1 light
# notes: as for B2
# B22: GpH7-B3 variant S337_15Y/GpL16-k0 (antibody, human IgG1, kappa)
# heavy: not shown
# light: B1 light
# notes: as for B1
# B23: GpH7-B3 variant S337_19Q/GpL16-k0 (antibody, human IgG1, kappa)
# heavy: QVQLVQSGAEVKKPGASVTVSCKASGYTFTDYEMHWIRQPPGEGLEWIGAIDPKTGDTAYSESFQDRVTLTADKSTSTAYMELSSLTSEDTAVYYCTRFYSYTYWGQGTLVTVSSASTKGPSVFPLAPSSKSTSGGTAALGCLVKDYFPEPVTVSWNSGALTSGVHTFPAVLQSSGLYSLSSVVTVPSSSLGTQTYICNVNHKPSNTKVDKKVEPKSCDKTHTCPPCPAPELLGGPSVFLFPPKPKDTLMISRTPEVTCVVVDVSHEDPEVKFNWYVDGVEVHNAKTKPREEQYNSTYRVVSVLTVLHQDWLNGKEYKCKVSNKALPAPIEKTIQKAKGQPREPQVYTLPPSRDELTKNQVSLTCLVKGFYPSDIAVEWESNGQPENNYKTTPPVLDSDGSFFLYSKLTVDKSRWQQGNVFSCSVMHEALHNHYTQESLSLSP
# light: B1 light
# notes: as for B1
# Molecular target: T1, FcγRIIa R (extracellular domain with a …)
# Test: SPR Biacore, relative binding
Ho/Con_2aR,He/Con_2aR,Binder
118 % of GpH7-B3/GpL16-k0 (=100),,B1
,105 % of GpH7-A5/GpH7-B3/GpL16-k0 (=100),B2
107 % of GpH7-B3/GpL16-k0 (=100),,B3
105 % of GpH7-B3/GpL16-k0 (=100),,B4
103 % of GpH7-B3/GpL16-k0 (=100),,B5
,110 % of GpH7-A5/GpH7-B3/GpL16-k0 (=100),B6
,109 % of GpH7-A5/GpH7-B3/GpL16-k0 (=100),B7
102 % of GpH7-B3/GpL16-k0 (=100),,B8
103 % of GpH7-B3/GpL16-k0 (=100),,B9
,124 % of GpH7-A5/GpH7-B3/GpL16-k0 (=100),B10
107 % of GpH7-B3/GpL16-k0 (=100),,B11
102 % of GpH7-B3/GpL16-k0 (=100),,B12
102 % of GpH7-B3/GpL16-k0 (=100),,B13
110 % of GpH7-B3/GpL16-k0 (=100),,B14
,104 % of GpH7-A5/GpH7-B3/GpL16-k0 (=100),B15
114 % of GpH7-B3/GpL16-k0 (=100),,B16
101 % of GpH7-B3/GpL16-k0 (=100),,B17
,126 % of GpH7-A5/GpH7-B3/GpL16-k0 (=100),B18
109 % of GpH7-B3/GpL16-k0 (=100),,B19
104 % of GpH7-B3/GpL16-k0 (=100),,B20
,138 % of GpH7-A5/GpH7-B3/GpL16-k0 (=100),B21
100 % of GpH7-B3/GpL16-k0 (=100),,B22
102 % of GpH7-B3/GpL16-k0 (=100),,B23

# — patent US20180155451A1 (published 2018)
